One molecule from patent US20110225664, “MEGANUCLEASE VARIANTS CLEAVING A DNA TARGET SEQUENCE FROM A GLUTAMINE SYNTHETASE GENE AND USES THEREOF” (Cellectis, published 2011) can be followed below.

Holding throughout (experiment): cell_activity; CHO extrachromosomal SSA assay
The target of data set [1] is T1, I-CreI heterodimer Mt 3B + Mt 4C (Chlamydomonas reinhardtii (engineered), UniProt P05725;P05725 SEQ:1-167,SEQ:1-167).
T1 chain 1: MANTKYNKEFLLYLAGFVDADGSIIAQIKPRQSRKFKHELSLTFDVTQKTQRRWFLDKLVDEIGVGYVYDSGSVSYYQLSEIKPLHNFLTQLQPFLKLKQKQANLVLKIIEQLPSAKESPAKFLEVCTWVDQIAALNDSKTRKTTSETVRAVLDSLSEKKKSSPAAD
T1 chain 2: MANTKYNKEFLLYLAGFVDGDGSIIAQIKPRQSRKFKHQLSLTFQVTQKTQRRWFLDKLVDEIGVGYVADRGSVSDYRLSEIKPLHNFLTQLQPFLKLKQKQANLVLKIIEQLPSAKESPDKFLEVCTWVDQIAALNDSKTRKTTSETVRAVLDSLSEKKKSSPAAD
The protocol:
(§1) CHO cells were transfected with Polyfect® transfection reagent according to the supplier's protocol (QIAGEN). 72 hours after transfection, the level of Beta galactosidase expression for each transfection was quantified using the Beta-Glo® Assay System (Promega). The Beta-Glo Assay contains a luciferin-galactoside substrate (6-O-β-galactopyranosylluciferin) that can be cleaved by β-galactosidase to form luciferin that is then utilized in a firefly luciferase reaction to generate light. For each transfection, approximately 100,000 cells in 100 μl of medium were combined with an equal volume of Beta-Glo lysis/revelation buffer as described by the manufacturer (Promega). After 30 minutes of incubation at room temperature, signal was measured with a luminometer (Perkin Elmer Victor multilabel plate reader).
(§2) Several variants described in examples 3, 5, 6, 7 and 8 were first recloned in pCLS1768 (FIG. 16). Then, in order to identify the heterodimer displaying the maximal cleavage activity with the GSCHO1 target in CHO cells, I-CreI variants cleaving the GSCHO1.3 or GSCHO1.4 targets (described in examples 3, 5, 6, 7 and 8) were tested together as heterodimers against the GSCHO1 target in the CHO extrachromosomal assay.

Data set [2] deals with T2, I-CreI heterodimer Mt 3B + Mt 4D (Chlamydomonas reinhardtii (engineered), UniProt P05725;P05725 SEQ:1-167,SEQ:1-167).
T2 chain 1: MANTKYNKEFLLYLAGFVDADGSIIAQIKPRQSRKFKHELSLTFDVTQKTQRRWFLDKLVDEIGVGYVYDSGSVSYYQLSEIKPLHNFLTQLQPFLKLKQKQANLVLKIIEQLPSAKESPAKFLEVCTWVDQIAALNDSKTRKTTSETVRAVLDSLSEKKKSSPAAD
T2 chain 2: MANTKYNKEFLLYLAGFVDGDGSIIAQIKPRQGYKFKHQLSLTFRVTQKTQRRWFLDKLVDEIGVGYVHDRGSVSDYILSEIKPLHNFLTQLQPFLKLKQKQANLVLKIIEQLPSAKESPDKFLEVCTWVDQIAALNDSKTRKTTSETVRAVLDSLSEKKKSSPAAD
The protocol:
as §1, §2

In data set [3] the target is T3, I-CreI heterodimer Mt 3A + Mt 4C (Chlamydomonas reinhardtii (engineered), UniProt P05725;P05725 SEQ:1-167,SEQ:1-167).
T3 chain 1: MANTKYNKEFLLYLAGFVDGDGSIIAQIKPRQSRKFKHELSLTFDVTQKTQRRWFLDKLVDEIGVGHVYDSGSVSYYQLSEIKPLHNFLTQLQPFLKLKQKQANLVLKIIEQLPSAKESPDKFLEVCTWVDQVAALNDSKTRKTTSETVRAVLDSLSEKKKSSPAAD
T3 chain 2: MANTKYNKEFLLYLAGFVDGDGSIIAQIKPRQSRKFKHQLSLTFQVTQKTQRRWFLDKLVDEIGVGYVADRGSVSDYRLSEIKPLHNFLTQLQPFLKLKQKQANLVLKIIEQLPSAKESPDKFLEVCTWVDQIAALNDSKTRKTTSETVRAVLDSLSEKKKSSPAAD
Here is the method: as §1, §2

Data set [4] deals with T4, I-CreI heterodimer Mt 3C + Mt 4D (Chlamydomonas reinhardtii (engineered), UniProt P05725;P05725 SEQ:1-167,SEQ:1-167).
T4 chain 1: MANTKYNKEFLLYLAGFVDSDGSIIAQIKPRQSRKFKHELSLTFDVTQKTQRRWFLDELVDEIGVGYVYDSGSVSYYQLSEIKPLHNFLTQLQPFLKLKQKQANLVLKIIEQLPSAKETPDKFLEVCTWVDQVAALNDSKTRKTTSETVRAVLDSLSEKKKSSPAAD
T4 chain 2: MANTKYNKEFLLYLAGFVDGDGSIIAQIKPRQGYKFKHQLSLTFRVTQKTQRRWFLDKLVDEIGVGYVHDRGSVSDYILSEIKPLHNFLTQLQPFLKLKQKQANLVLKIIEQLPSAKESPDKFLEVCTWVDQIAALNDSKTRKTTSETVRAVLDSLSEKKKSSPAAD
Here is the method:
as §1, §2

Data set [5] deals with T5, I-CreI heterodimer Mt 3A + Mt 4B (Chlamydomonas reinhardtii (engineered), UniProt P05725;P05725 SEQ:1-167,SEQ:1-167).
T5 chain 1: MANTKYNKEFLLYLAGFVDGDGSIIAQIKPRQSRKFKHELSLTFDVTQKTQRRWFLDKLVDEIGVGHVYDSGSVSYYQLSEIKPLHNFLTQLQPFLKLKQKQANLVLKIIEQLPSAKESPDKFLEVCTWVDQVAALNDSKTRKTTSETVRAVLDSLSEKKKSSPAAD
T5 chain 2: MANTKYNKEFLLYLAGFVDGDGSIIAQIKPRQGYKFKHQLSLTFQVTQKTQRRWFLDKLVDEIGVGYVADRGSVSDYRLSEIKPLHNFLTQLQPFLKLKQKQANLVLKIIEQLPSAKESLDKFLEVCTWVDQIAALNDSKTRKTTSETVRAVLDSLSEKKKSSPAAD
Here is the method:
as §1, §2

The target in data set [6] is T6, I-CreI heterodimer Mt 3A + Mt 4A (Chlamydomonas reinhardtii (engineered), UniProt P05725;P05725 SEQ:1-167,SEQ:1-167).
T6 chain 1: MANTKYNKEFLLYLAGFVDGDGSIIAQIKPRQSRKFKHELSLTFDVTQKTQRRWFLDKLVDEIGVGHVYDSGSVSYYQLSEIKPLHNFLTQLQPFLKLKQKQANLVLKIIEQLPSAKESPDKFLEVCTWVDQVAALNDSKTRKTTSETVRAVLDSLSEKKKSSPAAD
T6 chain 2: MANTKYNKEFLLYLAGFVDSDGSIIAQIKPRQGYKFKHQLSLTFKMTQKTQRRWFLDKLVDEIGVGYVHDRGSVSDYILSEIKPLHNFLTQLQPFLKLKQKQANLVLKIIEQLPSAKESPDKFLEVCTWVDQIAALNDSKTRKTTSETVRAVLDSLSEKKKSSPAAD
Here is the method: as §1, §2

Data set [7] concerns the target T7, I-CreI heterodimer Mt 3A + Mt 4D (Chlamydomonas reinhardtii (engineered), UniProt P05725;P05725 SEQ:1-167,SEQ:1-167).
T7 chain 1: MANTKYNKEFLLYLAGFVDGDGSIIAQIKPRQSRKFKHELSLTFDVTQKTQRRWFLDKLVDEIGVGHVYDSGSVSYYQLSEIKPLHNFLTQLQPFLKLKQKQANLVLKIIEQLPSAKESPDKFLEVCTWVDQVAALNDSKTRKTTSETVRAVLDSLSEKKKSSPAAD
T7 chain 2: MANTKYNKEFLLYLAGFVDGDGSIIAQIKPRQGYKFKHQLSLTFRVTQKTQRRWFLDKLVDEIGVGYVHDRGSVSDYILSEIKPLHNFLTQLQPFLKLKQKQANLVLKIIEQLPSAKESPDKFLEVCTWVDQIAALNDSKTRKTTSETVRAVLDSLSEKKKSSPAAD
Here is the method: as §1, §2

Data set [8] concerns the target T8, I-CreI heterodimer Mt 3C + Mt 4B (Chlamydomonas reinhardtii (engineered), UniProt P05725;P05725 SEQ:1-167,SEQ:1-167).
T8 chain 1: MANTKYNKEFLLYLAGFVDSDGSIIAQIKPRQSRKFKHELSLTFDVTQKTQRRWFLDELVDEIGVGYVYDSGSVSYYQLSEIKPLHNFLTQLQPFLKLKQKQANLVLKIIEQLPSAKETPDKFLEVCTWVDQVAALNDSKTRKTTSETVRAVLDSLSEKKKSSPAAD
T8 chain 2: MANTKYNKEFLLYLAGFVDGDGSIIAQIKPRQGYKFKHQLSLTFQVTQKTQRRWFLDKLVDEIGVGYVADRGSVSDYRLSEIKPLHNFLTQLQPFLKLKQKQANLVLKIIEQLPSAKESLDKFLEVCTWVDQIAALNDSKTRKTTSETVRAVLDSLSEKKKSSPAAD
The protocol:
as §1, §2

For data set [9], the target named is T9, I-CreI heterodimer Mt 3C + Mt 4C (Chlamydomonas reinhardtii (engineered), UniProt P05725;P05725 SEQ:1-167,SEQ:1-167).
T9 chain 1: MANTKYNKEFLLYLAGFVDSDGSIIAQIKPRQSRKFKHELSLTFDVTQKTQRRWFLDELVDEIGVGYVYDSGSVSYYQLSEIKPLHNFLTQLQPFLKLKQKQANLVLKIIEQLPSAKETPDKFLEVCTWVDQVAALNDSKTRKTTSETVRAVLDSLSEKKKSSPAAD
T9 chain 2: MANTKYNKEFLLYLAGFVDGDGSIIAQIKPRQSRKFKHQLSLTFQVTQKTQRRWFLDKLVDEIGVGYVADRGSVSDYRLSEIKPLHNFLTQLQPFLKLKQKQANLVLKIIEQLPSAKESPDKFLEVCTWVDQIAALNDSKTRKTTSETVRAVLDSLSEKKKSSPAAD
The protocol:
as §1, §2

Data set [10] concerns the target T10, I-CreI heterodimer Mt 3B + Mt 4A (Chlamydomonas reinhardtii (engineered), UniProt P05725;P05725 SEQ:1-167,SEQ:1-167).
T10 chain 1: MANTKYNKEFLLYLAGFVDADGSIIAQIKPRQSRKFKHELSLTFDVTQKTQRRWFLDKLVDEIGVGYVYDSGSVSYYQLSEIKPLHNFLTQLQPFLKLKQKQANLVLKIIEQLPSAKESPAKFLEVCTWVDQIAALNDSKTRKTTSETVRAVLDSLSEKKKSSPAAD
T10 chain 2: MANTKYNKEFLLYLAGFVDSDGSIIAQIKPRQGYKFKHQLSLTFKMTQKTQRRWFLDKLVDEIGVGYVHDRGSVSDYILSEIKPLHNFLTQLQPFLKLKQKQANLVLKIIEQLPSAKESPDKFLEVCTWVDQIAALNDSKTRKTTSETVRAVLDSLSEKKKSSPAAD
The protocol:
as §1, §2

Data set [11] addresses T11, I-CreI heterodimer Mt 3B + Mt 4B (Chlamydomonas reinhardtii (engineered), UniProt P05725;P05725 SEQ:1-167,SEQ:1-167).
T11 chain 1: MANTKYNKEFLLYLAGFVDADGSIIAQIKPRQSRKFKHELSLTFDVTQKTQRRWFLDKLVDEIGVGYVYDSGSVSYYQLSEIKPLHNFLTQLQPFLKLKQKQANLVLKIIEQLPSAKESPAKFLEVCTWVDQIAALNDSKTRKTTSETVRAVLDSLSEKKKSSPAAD
T11 chain 2: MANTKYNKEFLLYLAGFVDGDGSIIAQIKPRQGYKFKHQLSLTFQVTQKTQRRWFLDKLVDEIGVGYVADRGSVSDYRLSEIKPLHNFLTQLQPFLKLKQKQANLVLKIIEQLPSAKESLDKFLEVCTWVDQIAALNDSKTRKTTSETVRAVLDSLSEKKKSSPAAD
Here is the method: as §1, §2

B1: GSCHO1 (dsDNA)
DNA 1: TGGCATACAAGTTTCTGCCCCAGGGTGAGAAAGTCCAACAATCGTCTGTCA
DNA 2: TGACAGACGATTGTTGGACTTTCTCACCCTGGGGCAGAAACTTGTATGCCA
In the case of B1, the activity in data set [1] worked out at 3.1e+06 luminescence units; in data set [2], 3.1e+06 luminescence units; in data set [3] it was 2e+06 luminescence units; in data set [4] it was 2.4e+06 luminescence units; in data set [5], 2.3e+06 luminescence units; in [6] it was 2.8e+06 luminescence units. Further, the activity in data set [7] is 2.5e+06 luminescence units; in [8] it was 2.8e+06 luminescence units; in data set [9], 2.9e+06 luminescence units; in data set [10], 500000 luminescence units; in data set [11] it was 3.1e+06 luminescence units.
